For experiment [1], the target named is CSPG (bovine) (D8428, Sigma) (bovine) (UniProt P21793). The experiment in a line: quartz crystal microbalance (Attana A100), CSPG coated; FCR3 Baculo.
For experiment [2] the target is unchanged. The experiment in a line: quartz crystal microbalance (Attana A100), CSPG coated; 3D7 Baculo.
Experiment [3] concerns the target T1, CSPG (bovine) (D8428, Sigma) (bovine, UniProt P21793 31-360, carries chondroitin sulfate A (CSA) glycosaminoglycan chain(s); attachment site not stated).
T1 construct: Commercial proteoglycan coated on the chip or plate; also called chondroitin sulfate proteoglycan; CSA proteoglycan (CSPG)
The experiment in a line: quartz crystal microbalance (Attana A100), CSPG coated.

Experiment [4] deals with T1, CSPG (bovine) (D8428, Sigma). The experiment in a line: quartz crystal microbalance (Attana A100), CSPG coated; 3D7 Baculo.
Method: All buffers and reagents were filtered to 0.2 μm. The ligand was CSPG (Bovine) (D8428, Sigma) or HSPG (H4777, Sigma), coated at a concentration of 100 μg/ml. Coating was done in steady state by adding ligand solution and incubation 30 minutes at room temperature. This was followed by blocking the plate with PBS containing 0.1% Ig-free BSA (BSA-50, Rockland), 30 minutes at room temperature. The Attana A100 was washed with 1% SDS prior to every experiment, using the manufacturers predefined daily wash program. Following the wash, the running buffer was switched to PBS at a flow rate of 25 μL/min, at 25° C., and the machine was allowed to stabilize at a maximum change in frequency of 0.5 Hz/min. […] Prior to sample injection PBS was injected as a blank. Analyte was injected in a 1:3 dilution series (0.25 μg/ml-60 μg/ml) starting with the lowest concentration. Association time was set to 84 seconds and disassociation time to 5 minutes. […] The data collected was processed in the Attester Evaluation software (Attana AB). Curves were fitted in a simple 1:1 model. kₒₙ and koff were determined by curve fitting and KD was calculated based KD=koff/kₒₙ.

T1 sequence (P21793 31-360): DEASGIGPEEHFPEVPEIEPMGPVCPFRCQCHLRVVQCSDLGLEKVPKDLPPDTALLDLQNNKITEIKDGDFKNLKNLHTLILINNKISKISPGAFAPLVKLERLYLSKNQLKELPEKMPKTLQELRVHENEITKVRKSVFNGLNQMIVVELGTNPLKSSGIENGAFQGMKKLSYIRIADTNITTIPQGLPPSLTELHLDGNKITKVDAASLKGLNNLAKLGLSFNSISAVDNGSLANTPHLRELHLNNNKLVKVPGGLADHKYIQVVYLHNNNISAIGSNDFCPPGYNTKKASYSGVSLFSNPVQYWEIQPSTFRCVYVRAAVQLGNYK
Chain of CSPG (bovine) (D8428, Sigma) (bovine) (P21793 31-360): as above

By Kd is commonly meant the constant that tells how readily two partners part at equilibrium. A low value points to tighter binding. The molecule VAR2CSA DBL1-ID2b, FCR3 (Baculo) returned a Kd in experiment [1] of 1.5 nM.

Regarding VAR2CSA DBL2X-DBL4ε, FCR3 (Baculo), the Kd in experiment [1] worked out at 2.4 nM.

As for VAR2CSA FV2, 3D7 (Baculo), the Kd in experiment [2] came to 8.2 nM.

In the case of VAR2CSA FV2, FCR3 (Baculo), the Kd in experiment [1] turned out to be 5.2 nM.

In experiment [1], VAR2CSA ID1-DBL3ε, FCR3 (Baculo) showed a Kd of 0.3 nM.

In experiment [1], VAR2CSA ID1-DBL4ε, FCR3 (Baculo) returned a Kd of 8.6 nM.

B1: VAR2CSA ID1-DBL2Xa, 3D7 (Baculo) (other)
chain: LSFILNSSDANNPSEKIQKNNDEVCNCNESGIASVEQEQISDPSSNKTCITHSSIKANKKKVCKHVKLGVRENDKDLRVCVIEHTSLSGVENCCCQDFLRILQENCSDNKSGSSSNGSCNNKNQEACEKNLEKVLASLTNCYKCDKCKSEQSKKNNKNWIWKKSSGKEGGLQKEYANTIGLPPRTQSLCLVVCLDEKGKKTQELKNIRTNSELLKEWIIAAFHEGKNLKPSHEKKNDDNGKKLCKALEYSFADYGDLIKGTSIWDNEYTKDLELNLQKIFGKLFRKYIKKNNTAEQDTSYSSLDELRESWWNTNKKYIWLAMKHGAGMNSTTCCGDGSVTGSGSSCDDIPTIDLIPQYLRFLQEWVEHFCKQRQEKVKPVIENCKSCKESGGTCNGECKTECKNKCEVYKKFIEDCKGGDGTAGSSWVKRWDQIYKRYSKYIEDAKRNRKAGTKNCGPSSTTNAA
notes: not shown: C-terminal V5 and His tag of the modified pAcGP67-A vector
For B1, in experiment [3], the binding result is given as “no binding (tested: 0.25 µg/ml-60 µg/ml)”.

B2: VAR2CSA ID1-DBL2Xb, 3D7 (Baculo) (other)
chain: NYIKGDPYFAEYATKLSFILNSSDANNPSEKIQKNNDEVCNCNESGIASVEQEQISDPSSNKTCITHSSIKANKKKVCKHVKLGVRENDKDLRVCVIEHTSLSGVENCCCQDFLRILQENCSDNKSGSSSNGSCNNKNQEACEKNLEKVLASLTNCYKCDKCKSEQSKKNNKNWIWKKSSGKEGGLQKEYANTIGLPPRTQSLCLVVCLDEKGKKTQELKNIRTNSELLKEWIIAAFHEGKNLKPSHEKKNDDNGKKLCKALEYSFADYGDLIKGTSIWDNEYTKDLELNLQKIFGKLFRKYIKKNNTAEQDTSYSSLDELRESWWNTNKKYIWLAMKHGAGMNSTTCCGDGSVTGSGSSCDDIPTIDLIPQYLRFLQEWVEHFCKQRQEKVKPVIENCKSCKESGGTCNGECKTECKNKCEVYKKFIEDCKGGDGTAGSSWVKRWDQIYKRYSKYIEDAKRNRKAGTKNCGPSSTTNAAENKCVQSDIDSFFKHLIDIGLTTPSSYLSIVLDDNICGADKAPWTTYTTYTTTEKCNKETDKSKLQQCNTAVVVNVPSPLGNTPHGYKY
notes: The 3D7 forward primer begins at LSFILN; not shown: C-terminal V5 and His tag of the modified pAcGP67-A vector
In experiment [4], B2 displayed a dissociation constant Kd of 21.8 nM.

B3: VAR2CSA ID1-ID2a, 3D7 (Baculo) (other)
chain: NYIKGDPYFAEYATKLSFILNSSDANNPSEKIQKNNDEVCNCNESGIASVEQEQISDPSSNKTCITHSSIKANKKKVCKHVKLGVRENDKDLRVCVIEHTSLSGVENCCCQDFLRILQENCSDNKSGSSSNGSCNNKNQEACEKNLEKVLASLTNCYKCDKCKSEQSKKNNKNWIWKKSSGKEGGLQKEYANTIGLPPRTQSLCLVVCLDEKGKKTQELKNIRTNSELLKEWIIAAFHEGKNLKPSHEKKNDDNGKKLCKALEYSFADYGDLIKGTSIWDNEYTKDLELNLQKIFGKLFRKYIKKNNTAEQDTSYSSLDELRESWWNTNKKYIWLAMKHGAGMNSTTCCGDGSVTGSGSSCDDIPTIDLIPQYLRFLQEWVEHFCKQRQEKVKPVIENCKSCKESGGTCNGECKTECKNKCEVYKKFIEDCKGGDGTAGSSWVKRWDQIYKRYSKYIEDAKRNRKAGTKNCGPSSTTNAAENKCVQSDIDSFFKHLIDIGLTTPSSYLSIVLDDNICGADKAPWTTYTTYTTTEKCNKETDKSKLQQCNTAVVVNVPSPLGNTPHGYKYACQCKIPTNEETCDDRKEYMNQWSCGSARTMKRGYKNDNYELCKYNGVDVKPTTVRSNSSKLD
notes: as for B1
B3 registered a Kd in experiment [4] of 5.7 nM.

The values are drawn from patent publication US20180298098A1 (VAR2 PHARMACEUTICAL, published 2018).
